B1: Co-chaperonin GroES (Escherichia coli (strain K12)), P0A6F9 (parent)
chain: MNIRPLHDRVIVKRKEVETKSAGGIVLTGSAAAKSTRGEVLAVGNGRILENGEVKPLDVKVGDIVIFNDGYGVKSEKIDNEEVLIMSESDILAIVEA

Variants of: B1
Details: with ch60_ecoli groEL

effect of a mutation on the interaction	Variant
increasing interaction strength	MNIRPLHDRVIVKRKEVETKSAGGIVLTGCAAAKSTRGEVLAVGNGRILENGEVKPLDVKVGDIVIFNDGYGVKSEKIDNEEVLIMSESDILAIVEA
increasing interaction	MNIRPLHDRVIVKRKEVETKSAGGIVLCGSAAAKSTRGEVLAVGNGRILENGEVKPLDVKVGDIVIFNDGYGVKSEKIDNEEVLIMSESDILAIVEA
increasing interaction strength	MNIRPLHDRVIVKRKEVETKSAGGIVLTCSAAAKSTRGEVLAVGNGRILENGEVKPLDVKVGDIVIFNDGYGVKSEKIDNEEVLIMSESDILAIVEA

Source: IntAct's records for PubMed 16239229
